Assay results from patent US20240240159A1.
Blank lines part the entries; values can stand above or below the substance they belong to.

Key:
Test in all cases: cell-based or functional assay
[1] = target: 358BP NTproBNP epitope-grafted FAD-GDH
[2] = target: Purified NTproBNP antigen (UniProt P16860)
[3] = target: 341BP NTproBNP epitope-grafted FAD-GDH
[4] = target: 358HNL-H3 epitope-grafted FAD-GDH
[5] = target: 358HNL-H1 epitope-grafted FAD-GDH
[6] = target: V5 peptide, Sigma (cat #V7754-4MG)
[7] = target: 341V5 epitope-grafted FAD-GDH

Sequence of UniProt P16860 (P16860 27-134 limits assumed): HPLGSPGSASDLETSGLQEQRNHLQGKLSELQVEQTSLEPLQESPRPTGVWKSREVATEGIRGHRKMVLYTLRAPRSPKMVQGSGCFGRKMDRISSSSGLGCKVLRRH
Sequence of 358BP NTproBNP epitope-grafted FAD-GDH (chain, as listed by the source): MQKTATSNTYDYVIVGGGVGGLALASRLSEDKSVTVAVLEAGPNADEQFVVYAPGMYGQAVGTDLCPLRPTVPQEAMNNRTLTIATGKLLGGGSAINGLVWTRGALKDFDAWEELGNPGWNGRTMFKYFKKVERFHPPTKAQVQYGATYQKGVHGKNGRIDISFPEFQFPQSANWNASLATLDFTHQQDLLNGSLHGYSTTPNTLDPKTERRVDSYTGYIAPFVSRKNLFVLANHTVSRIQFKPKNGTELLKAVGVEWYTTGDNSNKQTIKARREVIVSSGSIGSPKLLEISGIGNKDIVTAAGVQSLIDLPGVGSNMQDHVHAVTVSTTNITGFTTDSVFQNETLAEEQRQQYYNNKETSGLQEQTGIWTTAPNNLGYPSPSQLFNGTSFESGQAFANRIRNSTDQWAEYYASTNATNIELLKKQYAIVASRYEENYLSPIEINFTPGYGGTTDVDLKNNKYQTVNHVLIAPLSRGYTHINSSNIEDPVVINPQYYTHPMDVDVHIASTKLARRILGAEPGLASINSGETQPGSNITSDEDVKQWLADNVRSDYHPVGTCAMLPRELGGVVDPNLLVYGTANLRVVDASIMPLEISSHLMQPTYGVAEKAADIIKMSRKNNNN
Sequence of 358HNL-H3 epitope-grafted FAD-GDH (chain, as listed by the source): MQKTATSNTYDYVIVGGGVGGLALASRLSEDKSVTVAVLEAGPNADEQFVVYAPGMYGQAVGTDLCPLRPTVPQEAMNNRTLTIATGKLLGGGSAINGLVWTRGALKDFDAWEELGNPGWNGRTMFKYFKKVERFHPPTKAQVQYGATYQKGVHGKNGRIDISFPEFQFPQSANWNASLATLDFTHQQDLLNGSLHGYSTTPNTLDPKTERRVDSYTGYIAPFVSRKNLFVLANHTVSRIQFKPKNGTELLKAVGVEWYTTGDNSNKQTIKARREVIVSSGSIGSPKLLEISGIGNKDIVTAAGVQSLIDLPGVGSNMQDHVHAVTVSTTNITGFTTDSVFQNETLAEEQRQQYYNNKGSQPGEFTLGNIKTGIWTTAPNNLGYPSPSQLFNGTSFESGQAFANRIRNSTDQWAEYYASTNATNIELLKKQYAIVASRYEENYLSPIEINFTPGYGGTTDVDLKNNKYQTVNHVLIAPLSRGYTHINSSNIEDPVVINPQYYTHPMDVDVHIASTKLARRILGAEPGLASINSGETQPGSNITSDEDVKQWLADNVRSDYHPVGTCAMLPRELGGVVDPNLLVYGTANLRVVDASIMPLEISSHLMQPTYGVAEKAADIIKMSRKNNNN
Sequence of 341BP NTproBNP epitope-grafted FAD-GDH (chain, as listed by the source): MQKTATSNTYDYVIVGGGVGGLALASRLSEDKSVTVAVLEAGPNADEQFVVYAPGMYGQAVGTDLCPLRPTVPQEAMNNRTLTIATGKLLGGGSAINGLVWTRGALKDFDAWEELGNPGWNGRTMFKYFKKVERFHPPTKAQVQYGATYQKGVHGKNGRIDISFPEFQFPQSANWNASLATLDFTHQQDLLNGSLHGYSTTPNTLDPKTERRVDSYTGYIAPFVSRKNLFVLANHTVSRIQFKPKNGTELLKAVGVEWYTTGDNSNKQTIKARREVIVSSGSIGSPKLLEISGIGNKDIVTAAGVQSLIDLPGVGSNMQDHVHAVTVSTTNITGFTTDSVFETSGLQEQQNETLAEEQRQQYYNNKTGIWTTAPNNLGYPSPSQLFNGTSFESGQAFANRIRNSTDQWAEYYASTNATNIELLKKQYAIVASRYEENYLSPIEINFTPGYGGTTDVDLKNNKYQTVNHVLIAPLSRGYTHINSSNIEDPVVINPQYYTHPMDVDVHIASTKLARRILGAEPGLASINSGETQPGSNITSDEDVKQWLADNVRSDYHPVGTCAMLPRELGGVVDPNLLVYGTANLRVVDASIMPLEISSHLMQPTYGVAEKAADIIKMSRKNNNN
Sequence of 358HNL-H1 epitope-grafted FAD-GDH (chain, as listed by the source): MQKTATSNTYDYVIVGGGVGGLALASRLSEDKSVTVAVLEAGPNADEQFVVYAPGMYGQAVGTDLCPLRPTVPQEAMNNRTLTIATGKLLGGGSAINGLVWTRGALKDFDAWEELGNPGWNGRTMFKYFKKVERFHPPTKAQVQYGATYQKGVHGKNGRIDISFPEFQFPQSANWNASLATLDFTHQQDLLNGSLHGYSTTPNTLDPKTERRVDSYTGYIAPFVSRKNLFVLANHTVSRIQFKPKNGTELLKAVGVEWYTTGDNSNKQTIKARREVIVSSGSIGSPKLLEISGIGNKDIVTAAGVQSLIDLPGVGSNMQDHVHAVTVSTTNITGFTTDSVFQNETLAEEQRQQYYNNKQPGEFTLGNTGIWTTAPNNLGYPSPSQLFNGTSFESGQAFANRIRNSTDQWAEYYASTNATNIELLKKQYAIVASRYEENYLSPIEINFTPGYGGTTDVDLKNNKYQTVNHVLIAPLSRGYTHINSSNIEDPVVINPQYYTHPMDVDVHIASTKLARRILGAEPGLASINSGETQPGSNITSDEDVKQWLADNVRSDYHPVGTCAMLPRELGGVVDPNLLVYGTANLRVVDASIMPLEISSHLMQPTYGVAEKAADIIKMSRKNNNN

percent inhibition of GDH activity, 500 nM antibody [1]: 7%
percent inhibition of 341BP / 358BP by 500 nM antibody in the presence of 5 µM NTproBNP antigen [2]: 0%
percent inhibition of GDH activity, 500 nM antibody [3]: 25%
Substance: Mouse α-NTproBNP antibody, Biorad (cat #MCA2641)

percent inhibition of GDH activity, 500 nM antibody [1]: 7%
percent inhibition by 500 nM Novus antibody in the presence of 5 µM NTproBNP antigen [2]: 0%
Substance: Mouse α-NTproBNP antibody, Novus (cat #NB200-439)

percent inhibition of GDH activity, 25 nM antibody [4]: 60%
percent inhibition of GDH activity, 25 nM antibody [5]: 20%
Substance: Rabbit α-HNL mAb, Abcam (cat #ab206427) (antibody)

Substance: α-V5 antibody, mouse monoclonal, Sigma (cat #V8012-50UG)
percent inhibition of 341V5 by 300 nM α-V5 antibody in the presence of 3 µM V5 peptide [6]: 9%
percent inhibition of GDH activity, 300 nM antibody [7]: 50%
